Test results taken from patent US20120077957A1, “Lactam-Bridged Melanocortin Receptor-Specific Peptides” (PALATIN TECHNOLOGIES, INC., priority 2009, published 2012).
Bridge positions count the residues as written; N and C are the ends. Square brackets hold non-standard residues; d marks the D form. Orn = NCCC[C@H](N)C(=O)O; Dab = NCC[C@H](N)C(=O)O

Target: human melanocortin-4 receptor (recombinant hMC4-R) (human), P32245
Assay: competition with labelled NDP-α-MSH ([I125] or Eu), hMC4-R HEK-293 membranes
Details: remark: other sources report otherwise

human melanocortin-4 receptor (recombinant hMC4-R) (human), P32245, sequence (P32245 whole entry): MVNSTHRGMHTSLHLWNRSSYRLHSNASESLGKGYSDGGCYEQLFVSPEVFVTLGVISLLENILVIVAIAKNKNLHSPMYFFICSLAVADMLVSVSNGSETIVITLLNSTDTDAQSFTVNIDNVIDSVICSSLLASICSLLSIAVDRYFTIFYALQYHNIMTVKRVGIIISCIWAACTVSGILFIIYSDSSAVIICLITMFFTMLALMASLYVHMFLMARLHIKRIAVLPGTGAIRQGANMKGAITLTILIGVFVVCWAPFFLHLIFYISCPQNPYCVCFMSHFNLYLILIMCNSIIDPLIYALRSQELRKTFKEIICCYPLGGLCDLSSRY

| Binder | Ki [nM] |
| --- | --- |
| Ac-RD[Dab][dF]RWK-NH2 (lactam 2-7) [Asp...Lys analog of peptides No. 6 and No. 43: Ac-Arg-cyclo(Asp-Dab-D-Phe-Arg-Trp-Lys)-NH2] | 4 |
| Ac-RD[Dab](Ac)[dF]RWK-NH2 (lactam 2-7; SMILES CC(=O)NCC[C@@H]1NC(=O)[C@@H](NC(=O)[C@H](CCCNC(=N)N)NC(C)=O)CC(=O)NCCCC[C@@H](C(N)=O)NC(=O)[C@H](Cc2c[nH]c3ccccc23)NC(=O)[C@H](CCCNC(=N)N)NC(=O)[C@@H](Cc2ccccc2)NC1=O) [Asp...Lys analog of peptide No. 18: Ac-Arg-cyclo(Asp-Dab(Acetyl)-D-Phe-Arg-Trp-Lys)-NH2] | 33 |
| Ac-RD[Orn][dF]RWK-OH (lactam 2-7) [Asp...Lys analog of peptide No. 7: Ac-Arg-cyclo(Asp-Orn-D-Phe-Arg-Trp-Lys)-OH] | 18 |
| Ac-RD[Orn](Ac)[dF]RWK-NH2 (lactam 2-7) [Asp...Lys analog of peptide No. 33: Ac-Arg-cyclo(Asp-Orn(Acetyl)-D-Phe-Arg-Trp-Lys)-NH2] | 573 |

Other lines, results leading:

| Ki [nM] | Binder |
| --- | --- |
| 7 | Ac-RD[Orn][dF]RWK-NH2 (lactam 2-7) [Asp...Lys analog of peptide No. 8: Ac-Arg-cyclo(Asp-Orn-D-Phe-Arg-Trp-Lys)-NH2] |
| 56 | Ac-RD[Dab][dF]RWK-OH (lactam 2-7) [Asp...Lys analog of peptides No. 5 and No. 42: Ac-Arg-cyclo(Asp-Dab-D-Phe-Arg-Trp-Lys)-OH] |
